In US20160264649A1:

Assays:
Test in all cases: cell-based or functional assay
[1] = target: HIV-1 Env of isolate MGRM-Chronic-B-024 (HIV-1)
[2] = target: HIV-1 Env of isolate 93IN905 (HIV-1)
[3] = target: HIV-1 Env of isolate MGRM-Chronic-B-017 (HIV-1)
[4] = target: HIV-1 Env of isolate QH0692.42 (HIV-1)
[5] = target: HIV-1 Env of isolate APV_17 (HIV-1)
[6] = target: HIV-1 Env of isolate MG RM-C-024 (HIV-1)
[7] = target: HIV-1 Env of isolate MGRM-Chronic-B-003 (HIV-1)
[8] = target: HIV-1 Env of isolate JRFL (HIV-1)
[9] = target: HIV-1 Env of isolate APV_6 (HIV-1)
[10] = target: HIV-1 Env of isolate VLGCB3 (HIV-1)
[11] = target: HIV-1 Env of isolate MGRM-Chronic-B-010 (HIV-1)
[12] = target: HIV-1 Env of isolate CAAN.A2 (HIV-1)
[13] = target: HIV-1 Env of isolate THR0.18 (HIV-1)
[14] = target: HIV-1 Env of isolate TRO.11 (HIV-1)
[15] = target: HIV-1 Env of isolate MGRM-Chronic-B-018 (HIV-1)
[16] = target: HIV-1 Env of isolate 93MW959 (HIV-1)
[17] = target: HIV-1 Env of isolate TRJ04551.58 (HIV-1)
[18] = target: HIV-1 Env of isolate MG RM-C-023 (HIV-1)
[19] = target: HIV-1 Env of isolate APV_13 (HIV-1)
[20] = target: HIV-1 Env of isolate MGRM-Chronic-B-023 (HIV-1)
[21] = target: HIV-1 Env of isolate MGRM-Chronic-B-020 (HIV-1)
[22] = target: HIV-1 Env of isolate MGRM-Chronic-B-012 (HIV-1)
[23] = target: HIV-1 Env of isolate NL43 (HIV-1)
[24] = target: HIV-1 Env of isolate 98IN022 (HIV-1)
[25] = target: HIV-1 Env of isolate 97ZA012 (HIV-1)
[26] = target: HIV-1 Env of isolate 93TH305 (HIV-1)
[27] = target: HIV-1 Env of isolate MGRM-Chronic-B-001 (HIV-1)
[28] = target: HIV-1 Env of isolate 6535.3 (HIV-1)
[29] = target: HIV-1 Env of isolate SF162 (HIV-1) (UniProt P19550)
[30] = target: HIV-1 Env of isolate SC422661.8 (HIV-1)
[31] = target: HIV-1 Env of isolate MGRM-Chronic-B-008 (HIV-1)
[32] = target: HIV-1 Env of isolate MG RM-C-020 (HIV-1)
[33] = target: HIV-1 Env of isolate JRCSF (HIV-1) (UniProt P20871)
[34] = target: HIV-1 Env of isolate MGRM-Chronic-B-011 (HIV-1)
[35] = target: HIV-1 Env of isolate MG RM-C-025 (HIV-1)
[36] = target: HIV-1 Env of isolate MGRM-Chronic-B-004 (HIV-1)
[37] = target: HIV-1 Env of isolate 92 BR 020 (HIV-1)
[38] = target: HIV-1 Env of isolate MG RM-C-028 (HIV-1)
[39] = target: HIV-1 Env of isolate MG RM-C-022 (HIV-1)
[40] = target: HIV-1 Env of isolate MG RM-C-026 (HIV-1)
[41] = target: HIV-1 Env of isolate MGRM-Chronic-B-002 (HIV-1)
[42] = target: HIV-1 Env of isolate MG RM-C-027 (HIV-1)
[43] = target: HIV-1 Env of isolate PVO.4 (HIV-1)

PGT-127 monoclonal antibody (5145_B14)
neutralization IC50 [1]: > 50 µg/mL
neutralization IC50 [2]: 0.024 µg/mL
neutralization IC50 [3]: > 50 µg/mL
neutralization IC50 [4]: 0.129 µg/mL
neutralization IC50 [5]: 10.4 µg/mL
neutralization IC50 [6]: > 50 µg/mL
neutralization IC50 [7]: 0.12 µg/mL
neutralization IC50 [8]: 0.029 µg/mL
neutralization IC50 [9]: 0.04 µg/mL
neutralization IC50 [10]: 0.022 µg/mL
neutralization IC50 [11]: 0.019 µg/mL
neutralization IC50 [12]: 0.371 µg/mL
neutralization IC50 [13]: > 50 µg/mL
neutralization IC50 [14]: 0.079 µg/mL
neutralization IC50 [15]: 1.9 µg/mL
neutralization IC50 [16]: 6.95 µg/mL
neutralization IC50 [17]: 0.063 µg/mL
neutralization IC50 [18]: 1.08 µg/mL
neutralization IC50 [19]: 0.026 µg/mL
neutralization IC50 [20]: > 50 µg/mL
neutralization IC50 [21]: 0.05 µg/mL
neutralization IC50 [22]: 0.075 µg/mL
neutralization IC50 [23]: > 50 µg/mL
neutralization IC50 [24]: 19.2 µg/mL
neutralization IC50 [25]: > 50 µg/mL
neutralization IC50 [26]: 0.017 µg/mL
neutralization IC50 [27]: > 50 µg/mL
neutralization IC50 [28]: 0.02 µg/mL
neutralization IC50 [29]: 0.019 µg/mL
neutralization IC50 [30]: 36.7 µg/mL
neutralization IC50 [31]: 21.5 µg/mL
neutralization IC50 [32]: > 50 µg/mL
neutralization IC50 [33]: 0.018 µg/mL
neutralization IC50 [34]: 0.297 µg/mL
neutralization IC50 [35]: > 50 µg/mL
neutralization IC50 [36]: 0.018 µg/mL
neutralization IC50 [37]: 0.059 µg/mL
neutralization IC50 [38]: 7.57 µg/mL
neutralization IC50 [39]: 0.41 µg/mL
neutralization IC50 [40]: 0.014 µg/mL
neutralization IC50 [41]: 0.279 µg/mL
neutralization IC50 [42]: > 50 µg/mL
neutralization IC50 [43]: 0.164 µg/mL
